Experimental findings from publication PMC7749629 are described below.

The target of the data set is T1, h-PUS10 (recombinant PUS10 from total HEK293T extract) (human, UniProt Q3MIT2 1-529).
T1 sequence: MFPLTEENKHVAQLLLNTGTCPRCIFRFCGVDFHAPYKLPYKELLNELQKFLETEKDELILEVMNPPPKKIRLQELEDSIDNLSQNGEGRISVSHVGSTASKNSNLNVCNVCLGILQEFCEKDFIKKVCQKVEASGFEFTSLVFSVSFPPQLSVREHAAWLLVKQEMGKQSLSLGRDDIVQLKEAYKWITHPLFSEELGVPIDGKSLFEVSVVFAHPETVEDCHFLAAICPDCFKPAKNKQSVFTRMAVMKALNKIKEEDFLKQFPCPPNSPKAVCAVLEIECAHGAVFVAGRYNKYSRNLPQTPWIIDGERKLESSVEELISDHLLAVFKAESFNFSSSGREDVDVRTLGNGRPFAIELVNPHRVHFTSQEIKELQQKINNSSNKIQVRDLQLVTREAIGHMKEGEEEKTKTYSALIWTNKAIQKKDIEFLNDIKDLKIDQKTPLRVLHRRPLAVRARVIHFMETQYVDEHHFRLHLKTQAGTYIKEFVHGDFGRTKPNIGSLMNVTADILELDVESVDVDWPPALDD
Description: EMSA. For orientation: In EMSA bound probe runs differently from free probe, usually more slowly.

B1: mutated tRNAAU-Ala (U59A, G60A; GAAA at 57-60) (structured_RNA)
RNA: GGGGAAUUAGCUCAAAUGGUAGAGCGCUCGCUUAGCAUGCGAGAGGUAGCGGGAUCGAAACCCGCAUUCUCCA
modifications: unmodified transcript
Consider B1, for which the binding result is “binds”.
